# Assay results taken from patent publication US20040220079A1 (OKLAHOMA MEDICAL RESEARCH FOUNDATION, published 2004).
# No end group written: not given here.
# Key:
# [1] = target: T1, recombinant memapsin 2 (human, UniProt P56817 14-454, limits assumed); experiment: inhibition constant quoted in the crystallisation example
# T1 construct: also called M2; beta-secretase
# [2] = target: T1, recombinant memapsin 2; experiment: comparison of inhibition constants with and without P4 Glu
# [3] = target: T1, recombinant memapsin 2; experiment: enzyme inhibition with a synthetic fluorogenic peptide substrate
# T1 sequence (P56817 14-454 limits assumed): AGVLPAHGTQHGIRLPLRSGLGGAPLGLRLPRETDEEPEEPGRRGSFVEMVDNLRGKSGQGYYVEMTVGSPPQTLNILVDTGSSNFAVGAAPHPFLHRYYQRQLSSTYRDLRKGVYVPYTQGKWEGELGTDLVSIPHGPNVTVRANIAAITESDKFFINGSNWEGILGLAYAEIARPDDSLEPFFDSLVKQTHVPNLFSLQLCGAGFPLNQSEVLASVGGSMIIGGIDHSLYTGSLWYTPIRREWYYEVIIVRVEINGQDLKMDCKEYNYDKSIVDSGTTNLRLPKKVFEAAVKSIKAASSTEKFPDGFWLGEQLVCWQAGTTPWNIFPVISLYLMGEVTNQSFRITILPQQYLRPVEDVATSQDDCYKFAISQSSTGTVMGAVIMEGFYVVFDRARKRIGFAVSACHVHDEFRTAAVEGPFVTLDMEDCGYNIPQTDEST
Ki [1],fold increase in Ki against OM99-2 [2],Ki [3],Binder
10 nM,,,EVNLAAEF (also: Leu-Ala peptide bond replaced by hydroxyethylene isostere -CH(OH)-CH2- (Leu*Ala)) [OM99-2]
,10 fold,30 nM,"VNLAAEF (also: Leu-Ala peptide bond replaced by hydroxyethylene isostere -CH(OH)-CH2-, also called OMR99-1; Val-Asn-Leu*Ala-Ala-Glu-Phe) [OM99-1]"
